Values quoted from earlier work, collected in paper PMC4741438, “Targeting the SIN3A-PF1 interaction inhibits epithelial to mesenchymal transition and maintenance of a stem cell phenotype in triple negative breast cancer” (Oncotarget, 2015).

Tested on: PAH2
Conditions: in comparison to MAD
Source text: The PAH2 domain of SIN3 mediates interactions with a restricted subset of factors containing a conserved SIN3 interaction domain (SID) with homology to amino acids 5-24 of the prototypic PAH2-binding protein, the transcriptional repressor MAD [19-22]. […] Therefore, the use of small molecules based on in silico modeling of the MAD-SID sequence to prevent recruitment of the PF1-containing complexes represents a new and potentially clinically effective therapeutic strategy. While it cannot be ruled out that the effects of SID treatment act through inhibiting the interaction of additional PAH2-binding proteins with SIN3, the finding that PF1 kn ...

B1: PF1: plant homeodomain (PHD)-containing protein PF1 (PHF12) (protein)
chain: MWEKMETKTIVYDLDTSGGLMEQIQALLAPPKTDEAEKRSRKPEKEPRRSGRATNHDSCDSCKEGGDLLCCDHCPAAFHLQCCNPPLSEEMLPPGEWMCHRCTVRRKKREQKKELGHVNGLVDKSGKRTTSPSSDTDLLDRSASKTELKAIAHARILERRASRPGTPTSSASTETPTSEQNDVDEDIIDVDEEPVAAEPDYVQPQLRRPFELLIAAAMERNPTQFQLPNELTCTTALPGSSKRRRKEETTGKNVKKTQHELDHNGLVPLPVKVCFTCNRSCRVAPLIQCDYCPLLFHMDCLEPPLTAMPLGRWMCPNHIEHVVLNQKNMTLSNRCQVFDRFQDTVSQHVVKVDFLNRIHKKHPPNRRVLQSVKRRSLKVPDAIKSQYQFPPPLIAPAAIRDGELICNGIPEESQMHLLNSEHLATQAEQQEWLCSVVALQCSILKHLSAKQMPSHWDSEQTEKADIKPVIVTDSSVTTSLQTADKTPTPSHYPLSCPSGISTQNSLSCSPPHQSPALEDIGCSSCAEKSKKTPCGTANGPVNTEVKANGPHLYSSPTDSTDPRRLPGANTPLPGLSHRQGWPRPLTPPAAGGLQNHTVGIIVKTENATGPSSCPQRSLVPVPSLPPSIPSSCASIENTSTLQRKTVQSQIGPPLTDSRPLGSPPNATRVLTPPQAAGDGILATTANQRFSSPAPSSDGKVSPGTLSIGSALTVPSFPANSTAMVDLTNSLRAFMDVNGEIEINMLDEKLIKFLALQRIHQLFPSRVQPSPGSVGTHQLASGGHHIEVQRKEVQARAVFYPLLGLGGAVNMCYRTLYIGTGADMDVCLTNYGHCNYVSGKHACIFYDENTKHYELLNYSEHGTTVDNVLYSCDFSEKTPPTPPSSIVAKVQSVIRRRRHQKQDEEPSEEAAMMSSQAQGPQRRPCNCKASSSSLIGGSGAGWEGTALLHHGSYIKLGCLQFVFSITEFATKQPKGDASLLQDGVLAEKLSLKPHQGPVLRSNSVP
affinity for PAH2, fold lower than MAD: 10 fold
